Tests used:
Assay in all cases: EMSA
Details in all cases: EMSA: 25 mM Tris pH 7.5, 150 mM NaCl, 5% glycerol, 1 mM MgCl2, 1 nM 32P-RNA, 30 min RT; microplates pretreated with 0.0025% BSA; 6% gel in 0.5x TBE at 4 C
[1] = biological target: T1, ProQ NTD R69A R69A (Escherichia coli) (UniProt P45577)
T1 sequence: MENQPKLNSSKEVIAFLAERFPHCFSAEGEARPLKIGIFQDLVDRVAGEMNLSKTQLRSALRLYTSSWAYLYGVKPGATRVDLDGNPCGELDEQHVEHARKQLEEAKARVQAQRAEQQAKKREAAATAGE

[2] = biological target: T2, ProQ NTD K54A K54A (Escherichia coli) (UniProt P45577)
T2 sequence: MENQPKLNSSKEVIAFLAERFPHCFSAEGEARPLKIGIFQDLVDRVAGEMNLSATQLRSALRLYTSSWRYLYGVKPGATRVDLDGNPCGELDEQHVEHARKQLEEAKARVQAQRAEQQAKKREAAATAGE

[3] = biological target: T3, ProQ NTD T65A T65A (Escherichia coli) (UniProt P45577)
T3 sequence: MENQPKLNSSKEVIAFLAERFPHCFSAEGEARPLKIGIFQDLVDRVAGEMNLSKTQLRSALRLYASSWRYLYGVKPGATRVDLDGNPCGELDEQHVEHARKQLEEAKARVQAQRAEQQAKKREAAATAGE

[4] = biological target: T4, ProQ NTD D41A D41A (Escherichia coli) (UniProt P45577)
T4 sequence: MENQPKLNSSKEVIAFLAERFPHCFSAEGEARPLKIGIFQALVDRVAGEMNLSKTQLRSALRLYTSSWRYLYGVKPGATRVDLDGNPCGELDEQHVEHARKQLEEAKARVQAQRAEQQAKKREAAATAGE

[5] = biological target: T5, ProQ NTD R58A R58A (Escherichia coli) (UniProt P45577)
T5 sequence: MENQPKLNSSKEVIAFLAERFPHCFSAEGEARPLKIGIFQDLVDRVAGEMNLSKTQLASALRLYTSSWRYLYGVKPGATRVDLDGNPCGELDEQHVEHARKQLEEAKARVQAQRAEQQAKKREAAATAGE

[6] = biological target: T6, ProQ NTD R62A R62A (Escherichia coli) (UniProt P45577)
T6 sequence: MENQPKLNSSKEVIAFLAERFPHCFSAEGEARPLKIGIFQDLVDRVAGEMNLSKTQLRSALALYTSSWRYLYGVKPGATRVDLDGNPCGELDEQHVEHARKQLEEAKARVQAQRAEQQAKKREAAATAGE

[7] = biological target: T7, ProQ NTD R32A R32A (Escherichia coli) (UniProt P45577)
T7 sequence: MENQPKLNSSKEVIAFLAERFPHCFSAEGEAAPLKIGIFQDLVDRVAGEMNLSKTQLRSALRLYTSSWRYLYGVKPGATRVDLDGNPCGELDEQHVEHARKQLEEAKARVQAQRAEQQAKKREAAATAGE

[8] = biological target: T8, ProQ NTD K35A K35A (Escherichia coli) (UniProt P45577)
T8 sequence: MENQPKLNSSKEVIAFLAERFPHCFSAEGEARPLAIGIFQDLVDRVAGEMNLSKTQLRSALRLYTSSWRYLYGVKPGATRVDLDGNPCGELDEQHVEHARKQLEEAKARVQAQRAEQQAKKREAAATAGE

[9] = biological target: T9, ProQ NTD Y70F Y70F (Escherichia coli) (UniProt P45577)
T9 sequence: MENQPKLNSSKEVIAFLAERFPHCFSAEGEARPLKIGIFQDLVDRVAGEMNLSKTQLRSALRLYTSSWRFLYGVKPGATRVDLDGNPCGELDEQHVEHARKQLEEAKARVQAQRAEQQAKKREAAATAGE

Substance: RybB
- binding signal [1]: < 40 % max bound
- binding signal [2]: < 20 % max bound
- binding signal (fold weaker Kd than WT) [3]: 1
- binding signal (fold weaker Kd than WT) [4]: 2
- Kd [5]: > 1 µM

Substance: SibA
- binding signal [6]: 25 % max bound
- binding signal (fold weaker Kd than WT) [3]: 2
- binding signal (fold weaker Kd than WT) [4]: > 5
- Kd [5]: > 1 µM

Substance: SibB
- binding signal (fold weaker Kd than WT) [3]: 4
- binding signal (fold weaker Kd than WT) [4]: > 5
- Kd [5]: > 1 µM
- binding signal (fold weaker Kd than WT) [7]: 3
- Kd [8]: > 1 µM

Substance: SibB-5U
- binding signal [1]: > 30 % max bound

Substance: cspE81-3'
- binding signal [9]: < 20 % max bound
- binding signal [6]: < 20 % max bound
- binding signal [2]: 30 % max bound
- binding signal (fold weaker Kd than WT) [3]: 2
- binding signal (fold weaker Kd than WT) [4]: 2
- Kd [5]: > 1 µM
